Our source for the protein stability index values is the supplement of paper PMC10724198.

The subject of series [1] is Saccharomyces cerevisiae. Put plainly: protein stability index of tFT-peptide fusion in wild type (PSI (0-1 scale)); higher = more stable (slower turnover). Particulars: genetic background: wild type. As for the experimental part: (§1)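 MPS profiling in S. cerevisiae of two library types built from selected 12-aa C-degron peptides (IN1, IN2, LN1, LN3, VN2, R1-R5, W1-W3, Atg1 and Rpa12 C-termini): saturation mutagenesis libraries and C-terminal +1 capping libraries (13 aa). Each peptide is fused to the C-terminus of a sfGFP-mCherry timer, after a GGGS linker. Cells are FACS-sorted into 8 mCherry/sfGFP bins and sequenced. PSI runs from 0 (unstable) to 1 (stable), measured once in wild type and in the das1Δ or doa10Δ background.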

Series [2] relates to Saccharomyces cerevisiae. Kind of series: protein stability index of tFT-peptide fusion in deletion strain of DAS1 (PSI (0-1 scale)); higher = more stable (slower turnover). On the procedure: as §1
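Throughout, for protein stability index of tFT-peptide fusion in deletion strain of DAS1: PSI is a weighted mean of each variant's read distribution over the sorted stability bins, computed only for variants having over 10 reads in total.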
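Throughout, for protein stability index of tFT-peptide fusion in wild type: PSI derived as read-weighted mean over the 8 sorting bins, only variants exceeding 10 total reads kept, mCherry placed adjacent to the peptide and sfGFP distal.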

In the case of ATWRVGLWRGAS, the protein stability index turned out to be 0.487 with Saccharomyces cerevisiae [1] and 0.685 in the series with Saccharomyces cerevisiae [2].

Consider CGSCGYKFRTNN, for which the protein stability index in the series on Saccharomyces cerevisiae [1] came out at 0.265; in the series with Saccharomyces cerevisiae [2], 0.687.

CISCGYKFRTNN: the figures for the protein stability index with Saccharomyces cerevisiae [1] and in the series on Saccharomyces cerevisiae [2] were 0.211 and 0.725, respectively.

With CTSCGFKFRTNN, the protein stability index in the series with Saccharomyces cerevisiae [1] is 0.486; in the series on Saccharomyces cerevisiae [2], 0.697.

For CTSCGMKFRTNN, the protein stability index was found to be 0.304 in the series with Saccharomyces cerevisiae [1] and 0.715 in the series on Saccharomyces cerevisiae [2].

As to CTSCGYKFCTNN, the protein stability index in the series with Saccharomyces cerevisiae [1] was 0.377; in the series with Saccharomyces cerevisiae [2] it was 0.698.

For CTSCGYKFPTNN, the protein stability index was determined as 0.71 with Saccharomyces cerevisiae [1] and 0.728 in the series with Saccharomyces cerevisiae [2].

In the case of CTSCGYKFRCNN, the protein stability index with Saccharomyces cerevisiae [1] is 0.487; in the series on Saccharomyces cerevisiae [2], 0.695.

As to CTSCGYKFRINN, the results for the protein stability index in the series with Saccharomyces cerevisiae [1] and with Saccharomyces cerevisiae [2] were 0.233 and 0.721, respectively.

As to CTSCGYKFRLNN, the protein stability index with Saccharomyces cerevisiae [1] was 0.35; in the series with Saccharomyces cerevisiae [2] it was 0.701.

With CTSCGYKFRTDN, the protein stability index with Saccharomyces cerevisiae [1] was 0.65; in the series with Saccharomyces cerevisiae [2] it was 0.653.

For CTSCGYKFRTNE, the protein stability index in the series on Saccharomyces cerevisiae [1] stood at 0.726; with Saccharomyces cerevisiae [2], 0.685.

CTSCGYKFRTNM: the protein stability index in the series on Saccharomyces cerevisiae [1] is 0.156; in the series on Saccharomyces cerevisiae [2], 0.731.

As for CTSCGYKFRTNNA, the protein stability index in the series on Saccharomyces cerevisiae [1] stood at 0.698; with Saccharomyces cerevisiae [2] it was 0.697.

For CTSCGYKFRTNNE, the values for the protein stability index in the series on Saccharomyces cerevisiae [1] and in the series with Saccharomyces cerevisiae [2] were 0.709 and 0.711, respectively.

For the sequence CTSCGYKFRTNNV, the protein stability index in the series with Saccharomyces cerevisiae [1] is 0.684; with Saccharomyces cerevisiae [2] it was 0.69.

For the sequence CTSCGYKYRTNN, the protein stability index in the series on Saccharomyces cerevisiae [1] stood at 0.295; with Saccharomyces cerevisiae [2] it was 0.674.

Regarding CTSCGYMFRTNN, the protein stability index in the series on Saccharomyces cerevisiae [1] was 0.357; in the series on Saccharomyces cerevisiae [2], 0.682.

Consider CTSCHYKFRTNN, for which the protein stability index stood at 0.26 in the series with Saccharomyces cerevisiae [1] and 0.64 with Saccharomyces cerevisiae [2].

CVVYLSCVACIN: the protein stability index with Saccharomyces cerevisiae [1] is 0.0137; with Saccharomyces cerevisiae [2], 0.0323.

Turning to DRWRVGLWRGAS, the figures for the protein stability index in the series with Saccharomyces cerevisiae [1] and in the series with Saccharomyces cerevisiae [2] were 0.413 and 0.657, respectively.

Turning to DTSCGYKFRTNN, the protein stability index turned out to be 0.241 in the series on Saccharomyces cerevisiae [1] and 0.68 in the series on Saccharomyces cerevisiae [2].

Regarding FAMRWTFRYWVN, the protein stability index with Saccharomyces cerevisiae [1] turned out to be 0.0656; with Saccharomyces cerevisiae [2] it was 0.476.

FKILRQKMNHQN: the protein stability index in the series with Saccharomyces cerevisiae [1] was found to be 0.168; in the series on Saccharomyces cerevisiae [2], 0.672.

For the sequence FSDRWTFRYWVN, the protein stability index worked out at 0.095 in the series on Saccharomyces cerevisiae [1] and 0.605 in the series on Saccharomyces cerevisiae [2].

Take FSMGWTFRYWVN: the protein stability index was determined as 0.0807 in the series with Saccharomyces cerevisiae [1] and 0.575 with Saccharomyces cerevisiae [2].

For FSMLWTFRYWVN, the protein stability index in the series on Saccharomyces cerevisiae [1] came out at 0.0376; in the series with Saccharomyces cerevisiae [2], 0.346.

With FSMRLTFRYWVN, the protein stability index with Saccharomyces cerevisiae [1] stood at 0.0555; with Saccharomyces cerevisiae [2], 0.401.

In the case of FSMRWQFRYWVN, the values for the protein stability index with Saccharomyces cerevisiae [1] and in the series on Saccharomyces cerevisiae [2] were 0.0795 and 0.53, respectively.

Consider FSMRWTCRYWVN, for which the protein stability index with Saccharomyces cerevisiae [1] was 0.0505; in the series with Saccharomyces cerevisiae [2], 0.515.

FSMRWTFEYWVN: the values for the protein stability index in the series on Saccharomyces cerevisiae [1] and in the series on Saccharomyces cerevisiae [2] were 0.0782 and 0.448, respectively.

With FSMRWTFRGWVN, the protein stability index stood at 0.313 in the series with Saccharomyces cerevisiae [1] and 0.605 in the series on Saccharomyces cerevisiae [2].

For FSMRWTFRYIVN, the values for the protein stability index in the series with Saccharomyces cerevisiae [1] and in the series on Saccharomyces cerevisiae [2] were 0.202 and 0.475, respectively.

As to FSMRWTFRYWHN, the protein stability index in the series on Saccharomyces cerevisiae [1] amounted to 0.149; in the series with Saccharomyces cerevisiae [2], 0.686.

As to FSMRWTFRYWVNF, the protein stability index in the series with Saccharomyces cerevisiae [1] is 0.076; in the series on Saccharomyces cerevisiae [2], 0.523.

Regarding FSMRWTFRYWVNH, the protein stability index in the series on Saccharomyces cerevisiae [1] amounted to 0.106; with Saccharomyces cerevisiae [2] it was 0.559.

Take FSMRWTFRYWVNK: the protein stability index was found to be 0.522 in the series on Saccharomyces cerevisiae [1] and 0.532 with Saccharomyces cerevisiae [2].
